PMC7261172 (2020)

B1: Cell penetrating APIM-peptide RFSLK (Ac-MD-RFSLK-WKKKRKI-RRRRRRRRRRR) (peptide)
peptide: Ac-MDRFSLKWKKKRKIRRRRRRRRRRR-NH2
modifications: also: TFA salt
B2: Cell penetrating APIM-peptide RWLVK (Ac-MD-RWLVK-WKKKRKI-RRRRRRRRRRR) (peptide)
peptide: Ac-MDRWLVKWKKKRKIRRRRRRRRRRR-NH2
modifications: also: TFA salt

Biological target: E. coli β-clamp labelled with RED-maleimide dye (MST) (E. coli, UniProt P0A988 1-366, RED-maleimide fluorescent dye (RED-Maleimide Labelling Kit, NanoTemper); site not stated)
Test: MST

Binder | Kd [µM]
B1 | 19
B2 | 35
